Target: CD40 receptor on dendritic cells (mouse) (UniProt P27512)
Experiment: cell-based or functional assay

UniProt P27512, sequence (P27512 20-289): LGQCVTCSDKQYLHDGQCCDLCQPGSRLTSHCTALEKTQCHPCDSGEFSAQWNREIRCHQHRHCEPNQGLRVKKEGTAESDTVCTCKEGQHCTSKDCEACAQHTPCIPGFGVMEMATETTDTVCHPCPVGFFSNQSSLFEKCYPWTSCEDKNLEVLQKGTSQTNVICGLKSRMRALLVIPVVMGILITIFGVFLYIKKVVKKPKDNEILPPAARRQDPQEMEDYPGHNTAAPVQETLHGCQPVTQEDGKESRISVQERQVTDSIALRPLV

“E7-ΔCtΔTmCD40L fusion protein (secreted; HPV type 16 E7, 10 amino acid linker, murine CD40 ligand residues 52-260) (from UniProt P03129 1-98; P27548 52-260)” showed an IFN-γ released by DCs exposed to the vector (ELISA), first 24 hours of 335 pg, an IL-12 produced by DCs exposed to the vector (ELISA), 24 h (pg/2×10^5 cell/ml/24 h) of 18 and an IL-12 produced by DCs exposed to the vector (ELISA), 48 h (pg/2×10^5 cell/ml/48 h) of 88.

From patent US8119117
